In patent US5077204A, “Yeast endopeptidase for basic amino-acid site cleavage, preparation and use” (Chiron Corporation, priority 1988, dated 1991):

Key:
[1] = target: T1, KEX2 endopeptidase (kex2[YEp24-pJ2B] membranes) (Saccharomyces cerevisiae, UniProt P13134); experiment: Endopeptidase activity in membranes from kex2 cells carrying multicopy plasmid pJ2B (over-produced specific endopeptidase); format: biochemical, S. cerevisiae
T1 construct: not only includes the KEX2 gene, but also the necessary transcriptional and translational regulatory signals for expression in yeast; expressed in transfected cells; host or cells: S. cerevisiae XBH16-15A (MATalpha kex2-1) carrying YEp24-pJ2B
T1 sequence (P13134 114-814): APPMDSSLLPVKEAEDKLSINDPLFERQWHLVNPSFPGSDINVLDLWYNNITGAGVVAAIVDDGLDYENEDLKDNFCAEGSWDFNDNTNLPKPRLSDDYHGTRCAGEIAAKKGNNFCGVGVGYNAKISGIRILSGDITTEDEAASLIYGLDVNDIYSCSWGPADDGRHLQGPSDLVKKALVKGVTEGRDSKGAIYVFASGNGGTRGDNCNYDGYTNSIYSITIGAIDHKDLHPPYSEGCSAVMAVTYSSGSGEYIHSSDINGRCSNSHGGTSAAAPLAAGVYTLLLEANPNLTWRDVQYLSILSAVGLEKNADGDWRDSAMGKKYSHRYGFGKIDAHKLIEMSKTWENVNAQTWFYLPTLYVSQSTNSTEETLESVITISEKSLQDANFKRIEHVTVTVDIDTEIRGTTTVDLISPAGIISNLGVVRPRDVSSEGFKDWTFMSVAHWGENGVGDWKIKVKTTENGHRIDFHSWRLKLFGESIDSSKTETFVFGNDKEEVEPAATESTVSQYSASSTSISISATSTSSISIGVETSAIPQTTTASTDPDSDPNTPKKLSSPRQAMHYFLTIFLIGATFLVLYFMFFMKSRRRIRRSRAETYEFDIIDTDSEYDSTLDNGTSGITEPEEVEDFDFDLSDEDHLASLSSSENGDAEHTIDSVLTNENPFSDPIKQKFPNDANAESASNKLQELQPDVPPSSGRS
Description: Permeabilization of whole yeast cells with the non-ionic detergent Brij 58, preparation of crude membrane fractions, and measurement of protein concentration were conducted by the methods described previously (Julius et al., 1983, supra), incorporated herein by reference. To measure peptidase activity, samples of permeabilized cells or membrane material were added to a reaction mixture containing 0.1-0.5 mM fluorogenic peptide substrate (added from a 20 mM stock dissolved in DMSO) and 200 mM HEPES-Tris (pH 7.0), in a final volume of 0.4 ml. Following incubation for 30 min at 37° C., whole cells were removed by centrifugation in a microfuge (Eppendorf) and membrane material was removed by Ba(OH)2 -ZnSO4 precipitation. The amount of fluorescence formed in the supernatant solution was determined in a fluorescence spectrophotometer (Perkin-Elmer, Model MPF-44B), set either at an excitation wavelength of 335 nm and an emission wavelength of 410 nm (for measurement of β-naphthylamine) or at an excitation wavelength of 380 nm and an emission wavelength of 460 nm (for measurement of 7-amino-4-methyl-coumarin, AMC). To determine the number of moles of substrate hydrolyzed, the fluorescence yield of samples was compared to a standard curve prepared with known concentrations of authentic AMC dissolved in the same buffer.
Cells of strain XBH1615A that had been transformed with the plasmids
indicated, or that contained pJ2B in integrated form, were grown in SCUra
and membranes were prepared as described in the Experimental.
Endopeptidase activity was assayed as described in the Experimental. All
substrates tested were present at 0.1 mM.
Endopeptidase activity was assayed using Boc--GlnArgArg--MCA as the
substrate, as outlined in the Experimental. All inhibitors were added fro
a 0.1 M stock dissolved in dimethyl sulfoxide.

[2] = system: human proinsulin (alpha-factor leader-proinsulin fusion); experiment: Processing of proinsulin in yeast transformed with KEX2 containing vectors; format: cell-based, yeast strains AB109 and AB103.1; settings: yeast transformed with pYBCA5-KEX2 versus pYBCA5; cleavage between alpha-factor leader and proinsulin, B/C and C/A junctions
Excerpt: Plasmids containing proinsulin and KEX2 genes (pYBCA5-KEX2 or pYBCA5-KEX4) or control plasmids with only proinsulin sequences (pYBCA5) or no insert (pCl/1) were used to transform kex2^- mutant yeast strain AB109 (Matα, kex2-1, ade2-1, his^-, leu2-3,112, trpl^-289, ura3-25 ura3-52, (KIL-k), cir° ) or KEX2^+ yeast strain AB103.1 (matα, pep4-3, leu2-3, leu2-112, ura3-52, his4-580, cir° ) following the procedure of Hinnen et al., Proc. Natl. Acad. Sci. USA (1978) 75:1929-1933. Transformants were grown in a low sulfate medium (LSM) containing 0.1 mM (NH4)2 SO4 until mid-exponential phase (OD660 nm 1-3), collected by centrifugation and resuspended in LSM containing 0.25 mCi of carrier free [ ^35 S]SO4^2- at an OD660 =2. After 10 min incubation, a 50-fold excess of (NH4)2 SO4 was added and cells were further incubated for 15-30 min. After centrifugation, proteins present in the cell free extract were precipitated with 12% trichloroacetic acid, 0.5 mg/ml deoxycholate. The precipitate was resuspended, reduced and alkylated and submitted to protein acrylamide gel electrophoresis (Laemmli, Nature (1970) 227:680). Gels were fixed, fluorographed, dried and exposed to Kodak XAR-5 film at -70° C.

B1: KEX2 endopeptidase: yeast endopeptidase, product of the KEX2 gene, cleaving on the carboxyl side of a pair of basic amino acids (protein, UniProt P13134 114-814, looked up)
Kexin: APPMDSSLLPVKEAEDKLSINDPLFERQWHLVNPSFPGSDINVLDLWYNNITGAGVVAAIVDDGLDYENEDLKDNFCAEGSWDFNDNTNLPKPRLSDDYHGTRCAGEIAAKKGNNFCGVGVGYNAKISGIRILSGDITTEDEAASLIYGLDVNDIYSCSWGPADDGRHLQGPSDLVKKALVKGVTEGRDSKGAIYVFASGNGGTRGDNCNYDGYTNSIYSITIGAIDHKDLHPPYSEGCSAVMAVTYSSGSGEYIHSSDINGRCSNSHGGTSAAAPLAAGVYTLLLEANPNLTWRDVQYLSILSAVGLEKNADGDWRDSAMGKKYSHRYGFGKIDAHKLIEMSKTWENVNAQTWFYLPTLYVSQSTNSTEETLESVITISEKSLQDANFKRIEHVTVTVDIDTEIRGTTTVDLISPAGIISNLGVVRPRDVSSEGFKDWTFMSVAHWGENGVGDWKIKVKTTENGHRIDFHSWRLKLFGESIDSSKTETFVFGNDKEEVEPAATESTVSQYSASSTSISISATSTSSISIGVETSAIPQTTTASTDPDSDPNTPKKLSSPRQAMHYFLTIFLIGATFLVLYFMFFMKSRRRIRRSRAETYEFDIIDTDSEYDSTLDNGTSGITEPEEVEDFDFDLSDEDHLASLSSSENGDAEHTIDSVLTNENPFSDPIKQKFPNDANAESASNKLQELQPDVPPSSGRS
- pH optimum [1]: 7.0-7.5
- Activity at pH 5.0 ([1]; pH 5.0): little activity detected
- Activity at pH 8.5 ([1]; pH 8.5): about half-maximal activity
- Processing of proinsulin (autoradiography of secreted insulin-related bands) [2]: able to process proinsulin at specific cleavage sites
